Source: patent US20170210813A1 (Regeneron, published 2017)

T1: Macaca fascicularis PDGFRb.mmh (Macaca fascicularis)
T1 construct: Soluble monomeric construct; also called mfPDGFRb.mmh
T1 chain: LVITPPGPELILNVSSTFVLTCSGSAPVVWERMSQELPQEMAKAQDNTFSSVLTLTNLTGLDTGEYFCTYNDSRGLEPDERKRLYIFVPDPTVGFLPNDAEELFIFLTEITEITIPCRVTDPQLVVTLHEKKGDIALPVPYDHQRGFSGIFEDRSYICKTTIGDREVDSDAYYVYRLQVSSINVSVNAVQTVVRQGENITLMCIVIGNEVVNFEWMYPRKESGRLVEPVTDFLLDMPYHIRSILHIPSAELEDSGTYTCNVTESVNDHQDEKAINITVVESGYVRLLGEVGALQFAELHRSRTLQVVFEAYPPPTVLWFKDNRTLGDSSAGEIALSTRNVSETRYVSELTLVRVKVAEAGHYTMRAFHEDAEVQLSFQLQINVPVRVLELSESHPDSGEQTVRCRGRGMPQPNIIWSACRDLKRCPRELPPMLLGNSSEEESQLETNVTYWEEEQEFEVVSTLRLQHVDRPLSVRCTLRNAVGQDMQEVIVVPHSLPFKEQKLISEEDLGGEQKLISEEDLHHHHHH

B1: H4H3094P (antibody, human IgG4, V domains shown)
VH: EVQLVESGGGLVQPGGSLRLSCAASGFTFSSYWMSWVRQAPGKGLEWVANMNQDGSETHYVDSVKGRLSISRDNAKKSLFLHMNSLRAEDTAVYFCARDLVPPRQDDYYYYFGMDVWGHGTTVTVSS
VL: DIQMTQSPSTLSASVGDRVTITCRASQSISDWLAWYQQKPGKAPKLLIFKASTLESGVPSRFSGSGSGTEFTLTISSLQPDDFATYYCQQYNSYSRTFGQGTKVEIK
notes: also called H4H3394P
B2: H4H3305N (antibody, human IgG4, V domains shown)
VH: QLQLQESGPGLVKPSETLSLTCIVSGGSISSSSYYWGWIRQPPGKGLEWIGSLYYSGITFYNPSLKSRVTISVDTSKNQFSLTLTSVTAADTAVFYCARHRVMASSPFDHWGQGTLVTVSS
VL: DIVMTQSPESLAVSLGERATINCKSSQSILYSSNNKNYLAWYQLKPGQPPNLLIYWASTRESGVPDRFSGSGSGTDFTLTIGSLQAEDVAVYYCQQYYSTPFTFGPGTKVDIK
notes: human IgG4 Fc (H4H prefix)
B3: H4H3099S (antibody, human IgG4, V domains shown)
VH: QITLKESGPTLVKPTQTLTLTCTFSGFSLTTTGVGVGWIRQPPGKALEWLALIYWNDLKRYSPSLKNRLTITKDTSRHQVVLTMTNMDPMDTATYYCAHRPLYYGSGSGWFDPWGPGTTVTVSS
VL: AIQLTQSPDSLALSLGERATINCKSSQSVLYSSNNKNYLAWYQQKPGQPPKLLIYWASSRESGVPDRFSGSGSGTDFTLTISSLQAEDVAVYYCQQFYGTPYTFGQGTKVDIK
notes: human IgG4 Fc (H4H prefix)
B4: H4H3374N (antibody, human IgG4, V domains shown)
VH: QLQLQESGPGLVKPSETLSLTCTVSGGSITSSSYYWGWIRQPPGKGLEWIGSIYYRGSTNYNPSLKSRVTISVDSSKNQFYLKVSSVTAVDTAVYYCARQNGAARPSWFDPWGQGTLVTVSS
VL: EIVLTQSPDTISLSPGERATLSCRASQSISSIYLAWYQQKPGQAPRLLIYGASSRVTGIPDRFSVSGSGTDFTLTISRLEPEDFAVYYCQHYGISPFTFGPGTKVDIR
notes: human IgG4 Fc (H4H prefix)

The binders below were run against T2, hPDGFRb.mmh (human, UniProt P09619 33-531) (assay: Octet BLI cross-competition, 25 C; hPDGFRb.mmh on anti-Penta-His tips pre-saturated with mAb-1 H4H3103S (row 4)).
T2 construct: Soluble monomeric construct; also called soluble human PDGFR-beta.mmh
Protocol: (§1) A cross-competition assay was conducted to assess the ability of select antibodies to compete with one another for binding to human PDGFR-beta. […] Each PDGFR-beta.mmh-coated sensor tip was saturated for 5 min with a first anti-PDGFR-beta antibody (Mab #1; 50 μg/mL). Next, each sensor tip was saturated with a solution of a second anti-PDGFR-beta antibody (Mab #2). The real time response of Mab #2 binding to PDGR-beta.mmh pre-complexed with Mab #1 was then monitored. All assays were performed at 25° C. with a flow rate of 1000 rpm on an Octet RED384 biosensor in Octet HBST buffer according to manufacturer's instructions (ForteBio Corp., Menlo Park, Calif.). Results are illustrated in FIG. 2.

Row | Binder | Response of mAb-2 Binding to hPDGFRβ.mmh Pre-Complexed with mAb-1 (nm)
1 | B1 | 0.02
2 | B2 | 0.25
3 | B3 | 0.34
4 | B4 | 0.02

What follows are binders tested against T2, hPDGFRb.mmh (assay: Octet BLI cross-competition, 25 C; hPDGFRb.mmh on anti-Penta-His tips pre-saturated with mAb-1 H4H3374N (row 3)).
Protocol: as §1

Row | Binder | Response of mAb-2 Binding to hPDGFRβ.mmh Pre-Complexed with mAb-1 (nm)
5 | B1 | 0.02
6 | B2 | 0.24
7 | B3 | 0.31

These binders were tested against T2, hPDGFRb.mmh (assay: blocking ELISA, biot-hPDGFRb.mmh to coated PDGF-BB).

Row | Binder | % Maximum Blocking [%] | IC50 [nM]
8 | B1 | 85 | 0.12
9 | B2 | 86 | 0.3
10 | B3 | 91 | 0.097
11 | B4 | 86 | 0.12

These binders were tested against T3, human PDGFRb.hFc (human) (assay: SPR, mAb captured, 37 C).
T3 construct: Soluble dimeric construct with human Fc; also called hPDGFRb.hFc
Protocol: (§2) Antibodies, expressed as either mouse Fc (prefix H1M; H2M) or human Fc (prefix H4H), were captured on their respective anti-Fc sensor surfaces (Mab capture format). […] Kinetic association (kₐ) and dissociation (kd) rate constants were determined by processing and fitting the data to a 1:1 binding model using Scrubber 2.0 curve fitting software.

Row | Binder | Kd [nM] | koff [s⁻¹] | kon [M⁻¹ s⁻¹] | t1/2 [min]
12 | B1 | 0.877 | 0.000248 | 283000 | 47
13 | B2 | 0.197 | 4.85e-05 | 247000 | 238
14 | B3 | 0.193 | 0.000105 | 540000 | 110
15 | B4 | 0.178 | 0.000291 | 1.63e+06 | 40

The binders below were run against T2, hPDGFRb.mmh (assay: SPR, mAb captured, 37 C).
Protocol: as §2

Row | Binder | Kd [nM] | koff [s⁻¹] | kon [M⁻¹ s⁻¹] | t1/2 [min]
16 | B1 | 6.58 | 0.00147 | 223000 | 8
17 | B2 | 1.93 | 0.000355 | 184000 | 33
18 | B3 | 2.39 | 0.000639 | 267000 | 18
19 | B4 | 1.84 | 0.00126 | 685000 | 9

Target: T1, Macaca fascicularis PDGFRb.mmh
Test: SPR, mAb captured, 37 C
Protocol: as §2

Row | Binder | Kd [nM] | koff [s⁻¹] | kon [M⁻¹ s⁻¹] | t1/2 [min]
20 | B1 | 6.69 | 0.0017 | 253000 | 7
21 | B2 | 2.04 | 0.00039 | 191000 | 30
22 | B3 | 2.17 | 0.000652 | 300000 | 18
23 | B4 | 2.63 | 0.00177 | 670000 | 7

Each binder was assayed against T4, full length human PDGFR-beta on HEK293 cells (human, UniProt P09619 33-1106) (assay: cell-based or functional assay).

Row | Binder | IC50, blocking PDGF-BB (250 pM) activation, SRE-luciferase [M] | IC50, blocking PDGF-DD (400 pM) activation, SRE-luciferase [M]
24 | B1 | 4e-10 | 3.9e-10
25 | B2 | 5e-10 | 4.8e-10
26 | B3 | 2.1e-10 | 1.9e-10
27 | B4 | 1.3e-10 | 1.5e-10

The binders below were run against T2, hPDGFRb.mmh (assay: Octet BLI cross-competition, 25 C; hPDGFRb.mmh on anti-Penta-His tips pre-saturated with mAb-1 Control I (row 1)).
Protocol: as §1

Row | Binder | Response of mAb-2 Binding to hPDGFRβ.mmh Pre-Complexed with mAb-1 (nm)
28 | B1 | -0.01
29 | B2 | 0.22
30 | B3 | 0.28

Target: T4, full length human PDGFR-beta on HEK293 …
Test: cell-based or functional assay
Remark: another data set of the same source

Row | Binder | Percent Internalization (Relative to Control I) [%]
31 | B1 | 77
32 | B2 | 79
33 | B3 | 88
34 | B4 | 81

The binders below were run against T2, hPDGFRb.mmh (assay: Octet BLI cross-competition, 25 C; hPDGFRb.mmh on anti-Penta-His tips pre-saturated with mAb-1 H4H3094P (row 5)).
Protocol: as §1

Row | Binder | Response of mAb-2 Binding to hPDGFRβ.mmh Pre-Complexed with mAb-1 (nm)
35 | B2 | 0.27
36 | B3 | 0.35
37 | B4 | 0

These binders were tested against T2, hPDGFRb.mmh (assay: Octet BLI cross-competition, 25 C; hPDGFRb.mmh on anti-Penta-His tips pre-saturated with mAb-1 H4H3107S (row 7)).
Protocol: as §1

Row | Binder | Response of mAb-2 Binding to hPDGFRβ.mmh Pre-Complexed with mAb-1 (nm)
38 | B1 | 0.23
39 | B2 | 0
40 | B4 | 0.24

The binders below were run against T2, hPDGFRb.mmh (assay: Octet BLI cross-competition, 25 C; hPDGFRb.mmh on anti-Penta-His tips pre-saturated with mAb-1 H4H3365N (row 2)).
Protocol: as §1

Row | Binder | Response of mAb-2 Binding to hPDGFRβ.mmh Pre-Complexed with mAb-1 (nm)
41 | B2 | 0.26
42 | B3 | 0.33
43 | B4 | 0.01

These binders were tested against T2, hPDGFRb.mmh (assay: Octet BLI cross-competition, 25 C; hPDGFRb.mmh on anti-Penta-His tips pre-saturated with mAb-1 H4H3099S (row 6)).
Protocol: as §1

Row | Binder | Response of mAb-2 Binding to hPDGFRβ.mmh Pre-Complexed with mAb-1 (nm)
44 | B1 | 0.25
45 | B2 | 0
46 | B4 | 0.27
